Measured values from PMC10269782.

Tests used:
[1] = molecular target: Nem1-3×Flag; assay: co-IP (GFP IP, anti-Flag western blot, band intensity quantified); settings: ΔSpo7::Nem1-Flag strain; parent: est. 100; read off a plot
[2] = molecular target: Spo7^I52R (co-IP construct) (Botryosphaeria dothidea); assay: co-IP; GFP and Flag fusion constructs transformed in pairs into B. dothidea LW03 (Spo7-Pah1 also in the ΔNem1 mutant); total proteins incubated with anti-GFP agarose; eluates blotted with anti-Flag and anti-GFP antibodies
[3] = molecular target: Spo7^3R (co-IP construct) (Botryosphaeria dothidea); assay: as above
[4] = molecular target: Spo7^L51R (co-IP construct) (Botryosphaeria dothidea); assay: as above
[5] = molecular target: Spo7^L50R (co-IP construct) (Botryosphaeria dothidea); assay: as above

Row | Substance | percent of parent [1] [%] | also measured
1 | GFP-Spo7 I52A | 98 | 
2 | GFP-Spo7 L50A | 108 | 
3 | GFP-Spo7 L50A; L51A; I52A | 97 | 
4 | GFP-Spo7 L51A | 100 | 
5 | Nem1-3×Flag (enzyme) |  | percent reduction of the interaction level against wild-type Spo7 (Nem1-Flag band in GFP IP) [2]: 55%; percent reduction of the interaction level against wild-type Spo7 (Nem1-Flag band in GFP IP) [3]: 93%; percent reduction of the interaction level against wild-type Spo7 (Nem1-Flag band in GFP IP) [4]: 68%; percent reduction of the interaction level against wild-type Spo7 (Nem1-Flag band in GFP IP) [5]: 72%
